Results from the RNAGym collection of RNA variant scans (doi:10.1021/acssynbio.7b00057).

B1: Pistol ribozyme (parent)
chain: GGGUCGUUGUUCCAUAAUCGCGUGGAUAUGGCACGCAAGUUUCUACCGGGCACCGUAAAUGUCCGACUGGAGCCGUUCGGGCGGCUAUAAACAGACCUCAGGCCCGAAGCGUGGCGGCACCUGCCGCCGGUGGUAAAAAAGAUCGGAAGAGCACACGUCU

Variants of: B1
Assay: aptazyme ON/OFF ratio, guanine; higher = stronger switching; co-transcriptional cleavage with and without guanine

In order of rising “aptazyme ON/OFF ratio” value:
1. U7G U8C G9C U10C U11C C12U  1.02
2. U7G U8C G9C U10C U11C C12U C13U  1.03
3. U7G U8C G9C U10G U11A C12U C13A  1.03
4. U7G U8C G9C U10G U11A C12U C13U  1.03
5. U7G U8C G9C U10G U11A C12U C13G  1.04
6. U7G U8C G9C U10C U11C C12G C13U  1.04
7. U7G U8C G9C U10C U11C C12U C13A  1.05
8. U7G U8C G9A U11A C12G C13A  1.05
9. U7G U8C G9A U11C C12G C13A  1.05
10. U7G U8C G9A U11C C12G C13G  1.05
11. U7G U8C G9C C13G  1.05
12. U7G U8C G9A U11A C12U C13U  1.05
13. U7G U8C G9C U10G U11A C13U  1.05
14. U7G U8C G9C U10G U11A C13A  1.05
15. U7G U8C G9C U10C U11C C12A  1.05
16. U7G U8C G9A U11A C12G C13G  1.06
17. U7G U8C G9C U10C U11G C12G  1.06
18. U7G U8C G9C U11A C13G  1.06
19. U7G U8C G9C U10C U11C C12G  1.06
20. U7G U8C G9C U11C C12G C13G  1.07
21. U7G U8C G9A U11A C12U C13G  1.08
22. U7G U8C G9C U10C U11G C12U C13A  1.08
23. U7G U8C G9C U10C U11G C12U C13G  1.08
24. U7G U8C G9C U10C U11G C12U C13U  1.08
25. U7G U8C G9C U10G U11G C12U C13G  1.09
26. U7G U8C G9C U10G U11G C12U C13A  1.09
27. U7G U8C G9C U11A C12U C13A  1.09
28. U7G U8C G9A U11A C12U C13A  1.09
29. U7G U8C G9C U11A C13A  1.09
30. U7G U8C G9C U10A U11A C12G C13A  1.1
31. U7G U8C G9C U11C C12U C13G  1.1
32. U7G U8C G9A U11A C12G C13U  1.1
33. U7G U8C G9C U10C U11G C12U  1.1
34. U7G U8C G9A U10G U11G C12A C13G  1.1
35. U7G U8C G9A U11G C12A  1.1
36. U7G U8C G9C U10A U11A C12G C13G  1.11
37. U7G U8C G9C U11A C12A C13A  1.11
38. U7G U8C G9C C13A  1.11
39. U7G U8C G9C U11C C12G C13U  1.11
40. U7G U8C G9C U10C U11A C12G C13U  1.12
41. U7G U8C G9C U10G U11G C12U C13U  1.12
42. U7G U8C G9C U10A U11A C12G C13U  1.13
43. U7G U8C G9C U11A C12U C13G  1.13
44. U7G U8C G9C U11A C12A C13U  1.13
45. U7G U8C G9A U10G U11G C12A C13A  1.13
46. U7G U8C G9C U11A C12A C13G  1.14
47. U7G U8C G9C U10C U11G C12A  1.14
48. U7G U8C G9C U10A U11C C12G C13G  1.14
49. U7G U8C G9A U11G C12G  1.14
50. U7G U8C G9C C13U  1.15
51. U7G U8C G9A U11C C12G C13U  1.16
52. U7G U8C G9C U10C U11A C12G C13G  1.17
53. U7G U8C G9C U11A C13U  1.18
54. U7G U8C G9U C12G C13A  1.18
55. U7G U8C G9C U10G U11A C13G  1.19
56. U7G U8C G9C U10C U11A C12G C13A  1.2
57. U7G U8C G9U C12A C13U  1.2
58. U7G U8C G9C U11C C12G C13A  1.2
59. U7G U8C G9C U10C U11C C12U C13G  1.21
60. U7G U8C G9C U11C C12U C13A  1.22
61. U7G U8C G9C U11A C12U C13U  1.22
62. U7G U8C G9C U10A U11C C13U  1.25
63. U7G U8C G9C U10A U11C C12G  1.26
64. U7G U8C G9C U10A U11C C13G  1.26
65. U7G U8C G9U C12A C13G  1.26
66. U7G U8C G9A U10G U11G C12G  1.27
67. U7G U8C G9A U10G U11G C12A  1.3
68. U7G U8C G9A U10G U11G C12A C13U  1.3
69. U7G U8C G9A U11G C12U  1.3
70. U7G U8C G9C U10A U11C C12G C13U  1.31
71. U7G U8C G9C U10A U11C C12U  1.32
72. U7G U8C G9C U11G  1.33
73. U7G U8C G9C U10A U11C C12A  1.33
74. U7G U8C G9C U10A U11C C12G C13A  1.33
75. U7G U8C G9C U11C C12U C13U  1.34
76. U7G U8C G9U C12A C13A  1.34
77. U7G U8C G9A U10G U11G C12U  1.35
78. U7G U8C G9A U11C C12G  1.4
79. U7G U8C G9C U10A U11C C13A  1.41
80. U7G U8C G9A U11C C12U  1.65
81. U7G U8C G9C U11C  1.87
82. U7G U8C G9A U11C C12A  2
83. U7G U8C G9C U11A  2.39
